Results published in patent US20220089784A1 (University of California, published 2022).

T1: BoNT/D (Clostridium botulinum, UniProt P19321 2-1276)
T1 sequence: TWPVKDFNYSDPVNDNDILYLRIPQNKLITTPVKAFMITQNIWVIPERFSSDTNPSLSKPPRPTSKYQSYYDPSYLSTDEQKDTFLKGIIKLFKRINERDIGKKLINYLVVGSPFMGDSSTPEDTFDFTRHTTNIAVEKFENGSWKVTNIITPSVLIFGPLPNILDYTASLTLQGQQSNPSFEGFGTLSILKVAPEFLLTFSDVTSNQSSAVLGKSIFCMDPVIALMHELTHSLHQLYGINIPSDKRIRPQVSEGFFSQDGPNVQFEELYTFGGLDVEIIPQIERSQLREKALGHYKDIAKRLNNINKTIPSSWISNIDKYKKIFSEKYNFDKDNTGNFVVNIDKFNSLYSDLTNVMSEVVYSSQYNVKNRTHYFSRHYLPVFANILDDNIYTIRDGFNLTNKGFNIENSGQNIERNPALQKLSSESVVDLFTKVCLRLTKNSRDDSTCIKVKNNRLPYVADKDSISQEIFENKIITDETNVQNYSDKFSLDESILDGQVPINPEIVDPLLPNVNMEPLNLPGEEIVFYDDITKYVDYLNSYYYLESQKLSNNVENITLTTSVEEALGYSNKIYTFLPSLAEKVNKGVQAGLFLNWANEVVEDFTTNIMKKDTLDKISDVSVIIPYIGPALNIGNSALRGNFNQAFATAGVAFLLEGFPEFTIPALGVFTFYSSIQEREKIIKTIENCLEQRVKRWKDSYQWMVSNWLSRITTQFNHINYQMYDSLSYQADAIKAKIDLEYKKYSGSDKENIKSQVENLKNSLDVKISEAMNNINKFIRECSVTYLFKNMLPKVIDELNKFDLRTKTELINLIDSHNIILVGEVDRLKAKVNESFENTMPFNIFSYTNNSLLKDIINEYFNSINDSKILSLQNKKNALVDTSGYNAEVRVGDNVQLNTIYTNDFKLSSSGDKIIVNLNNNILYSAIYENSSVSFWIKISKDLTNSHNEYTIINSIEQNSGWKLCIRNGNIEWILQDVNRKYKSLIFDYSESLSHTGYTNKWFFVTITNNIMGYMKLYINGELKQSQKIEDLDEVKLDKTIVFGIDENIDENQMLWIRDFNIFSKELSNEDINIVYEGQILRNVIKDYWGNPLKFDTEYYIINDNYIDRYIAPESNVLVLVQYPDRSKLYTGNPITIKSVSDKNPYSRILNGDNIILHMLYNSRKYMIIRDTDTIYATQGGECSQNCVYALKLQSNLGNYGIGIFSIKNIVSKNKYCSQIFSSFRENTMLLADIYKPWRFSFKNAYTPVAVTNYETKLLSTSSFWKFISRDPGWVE

T2: BoNT/C1 holotoxin (Clostridium botulinum, UniProt P18640 2-1291)
T2 sequence: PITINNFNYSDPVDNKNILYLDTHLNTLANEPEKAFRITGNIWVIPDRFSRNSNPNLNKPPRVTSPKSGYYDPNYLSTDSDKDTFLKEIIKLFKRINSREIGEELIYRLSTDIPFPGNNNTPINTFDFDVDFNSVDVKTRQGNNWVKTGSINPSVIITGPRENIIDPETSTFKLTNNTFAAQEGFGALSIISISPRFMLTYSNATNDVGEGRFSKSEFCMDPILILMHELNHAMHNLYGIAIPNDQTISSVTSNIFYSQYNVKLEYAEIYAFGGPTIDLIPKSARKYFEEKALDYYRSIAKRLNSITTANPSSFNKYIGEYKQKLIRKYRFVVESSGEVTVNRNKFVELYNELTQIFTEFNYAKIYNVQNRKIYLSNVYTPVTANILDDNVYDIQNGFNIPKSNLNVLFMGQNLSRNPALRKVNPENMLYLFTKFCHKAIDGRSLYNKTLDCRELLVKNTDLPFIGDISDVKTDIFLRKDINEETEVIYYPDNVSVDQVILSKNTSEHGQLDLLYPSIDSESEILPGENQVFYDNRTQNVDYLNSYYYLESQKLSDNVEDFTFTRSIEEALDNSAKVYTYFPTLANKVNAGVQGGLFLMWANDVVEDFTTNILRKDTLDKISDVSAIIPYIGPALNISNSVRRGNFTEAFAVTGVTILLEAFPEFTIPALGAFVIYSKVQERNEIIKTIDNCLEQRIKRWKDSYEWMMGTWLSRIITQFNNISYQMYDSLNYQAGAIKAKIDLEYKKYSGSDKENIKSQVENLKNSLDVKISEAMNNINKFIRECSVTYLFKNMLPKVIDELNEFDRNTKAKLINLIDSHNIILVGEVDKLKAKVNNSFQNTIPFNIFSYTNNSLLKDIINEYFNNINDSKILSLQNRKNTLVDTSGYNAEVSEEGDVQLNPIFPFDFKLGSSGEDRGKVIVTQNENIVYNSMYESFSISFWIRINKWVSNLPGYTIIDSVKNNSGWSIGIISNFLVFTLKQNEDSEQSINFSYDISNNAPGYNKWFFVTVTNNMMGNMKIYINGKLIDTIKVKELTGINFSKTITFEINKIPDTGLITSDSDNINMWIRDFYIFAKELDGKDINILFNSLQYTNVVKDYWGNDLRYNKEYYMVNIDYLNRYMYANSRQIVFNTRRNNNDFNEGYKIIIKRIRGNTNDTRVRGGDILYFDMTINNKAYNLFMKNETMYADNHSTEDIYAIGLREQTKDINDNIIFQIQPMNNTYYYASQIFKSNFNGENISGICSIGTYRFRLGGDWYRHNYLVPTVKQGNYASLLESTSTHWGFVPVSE

T3: BoNT/F1 (proteolytic BoNT/F) (Clostridium botulinum, UniProt A7GBG3 1-1278)
T3 sequence: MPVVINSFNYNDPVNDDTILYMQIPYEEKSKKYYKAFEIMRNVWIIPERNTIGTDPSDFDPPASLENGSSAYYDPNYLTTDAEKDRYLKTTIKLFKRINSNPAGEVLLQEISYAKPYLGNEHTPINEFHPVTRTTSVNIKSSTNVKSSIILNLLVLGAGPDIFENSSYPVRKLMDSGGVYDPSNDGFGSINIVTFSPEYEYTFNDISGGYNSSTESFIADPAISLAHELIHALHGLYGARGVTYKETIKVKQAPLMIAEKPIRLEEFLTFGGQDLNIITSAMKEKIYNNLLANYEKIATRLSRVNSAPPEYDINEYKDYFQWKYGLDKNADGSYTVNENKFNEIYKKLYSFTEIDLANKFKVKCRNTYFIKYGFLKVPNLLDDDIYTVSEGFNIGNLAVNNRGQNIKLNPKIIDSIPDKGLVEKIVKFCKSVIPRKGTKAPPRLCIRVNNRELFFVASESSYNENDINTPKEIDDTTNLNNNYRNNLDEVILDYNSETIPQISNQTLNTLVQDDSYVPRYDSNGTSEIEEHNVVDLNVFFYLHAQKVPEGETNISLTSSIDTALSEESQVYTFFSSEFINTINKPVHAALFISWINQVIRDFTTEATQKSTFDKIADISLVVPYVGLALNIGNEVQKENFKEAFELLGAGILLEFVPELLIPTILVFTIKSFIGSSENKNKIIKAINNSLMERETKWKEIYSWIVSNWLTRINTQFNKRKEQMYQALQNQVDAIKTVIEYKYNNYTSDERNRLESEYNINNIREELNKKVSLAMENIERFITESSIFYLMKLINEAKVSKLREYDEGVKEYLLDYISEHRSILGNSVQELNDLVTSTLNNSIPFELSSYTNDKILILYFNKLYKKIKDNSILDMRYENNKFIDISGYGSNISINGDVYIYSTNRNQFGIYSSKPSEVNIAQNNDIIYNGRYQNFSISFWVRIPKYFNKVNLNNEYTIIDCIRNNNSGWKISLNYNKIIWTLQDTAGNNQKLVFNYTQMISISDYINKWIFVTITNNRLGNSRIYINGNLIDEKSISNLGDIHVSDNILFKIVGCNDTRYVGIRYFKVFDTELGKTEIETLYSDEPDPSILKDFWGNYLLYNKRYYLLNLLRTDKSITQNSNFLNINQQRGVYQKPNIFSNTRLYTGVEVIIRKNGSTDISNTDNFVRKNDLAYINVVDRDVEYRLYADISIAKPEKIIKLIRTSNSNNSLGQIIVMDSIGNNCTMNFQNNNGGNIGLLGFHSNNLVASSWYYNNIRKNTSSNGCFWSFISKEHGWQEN


Tests used:
BoNT/D = target: T1, BoNT/D; assay: yeast scFv FACS
BoNT/C1 holotoxin = target: T2, BoNT/C1 holotoxin; assay: yeast scFv FACS
[1] = target: T3, BoNT/F1 (proteolytic BoNT/F); assay: IgG

| Binder | binding result (BoNT/D) | Kd (BoNT/C1 holotoxin) | Kd [1] |
| --- | --- | --- | --- |
| 4C9 scFv (scFv, V domains shown, human) VH: QVQLVESGAEVKKPGASVKVSCTASGYTFAGYYMDWVRQAPGQGLEWMGRINPKSGDPNYEQKFQGRVTLTRDKSINTVYMELSRLKSDDTAIYYCARSVSGGAFDLWGRGTLVTVSS VL: DIVMTQSPSSLSASVGDRVTITCRASQSINSYLNWYQQKPGKVPRLLIYSASSLQSGVPSRFSGSGSGTDFTLTISSLQPDDFATYYCQQYKRYSSFGQGTKVEIK | no binding (tested: ~1 µM) | 29.6 nM | – |
| 4C5 scFv (scFv, V domains shown, human) VH: QVQLVQSGADVKKPGASVRVSCKASGYTISTYAMSWVRQAPGQGLEWMGWISGYNGNTNYAQEFQGRVTMTRDTSTNTAYMELRSLRSDDTAFYYCARVKLTTMVRGGPFDYWGQGTLVTVSS VL: EIVLTQSPSSLSATVGDRVTITCRASQGIRNDLVWYQQKPGKAPKRLTYAASSLLSGVPSRFSGSGSGTDFTLTISSLQPEDFATYYCQQYNSYPPTFGGGTKLEIK | no binding (tested: ~1 µM) | 0.143 nM | – |
| 4C1 scFv (scFv, V domains shown, human) VH: QVQLQESGPGLVKPSQTLSLTCAVSGGSINSGDYYWTWIRQHPGKGLEWIGNIYYTGRTYYNPSLQSRLTMSVDTSRTHFSLKLSAVTAADTAVYYCARGQDTSMVTRNFYYGLDVWGQGTTVTVSS VL: DIVMTQSPSFVSASVGDRVTITCRASQGISSYLAWYQQKPGKAPKLLIYAASTLQSGVPSRFSGSGSGTDFTLTISSLQPEDIATYYCQELSSYPLTFGGGTKLEIK | no binding (tested: ~1 µM) | 2.7 nM | – |
| 4C8 scFv (scFv, V domains shown, human) VH: QVQLVESGGGLVQPGRSLRLSCAASGLTLSNYWMNWVRQAPGKGLEWVANIHQDGVEKYYVDSVKGRFTISRDNAKNSLYLQMSSLRAEDTAVYYCARGGKYSNSSAMYQWGQGTLVTVSS VL: DIVMTQSPSSLAASVGDRVTITCRASQSISGYLNWYQQKPGKAPNLLIYAASSLQSGVPSRFSGSGSGTDFTLTISSLQPDDFASYYCQQSYDIPRTFGQGTKVEIK | no binding (tested: ~1 µM) | 51.1 nM | – |
| 4C3 scFv (scFv, V domains shown, human) VH: EVQLVQSGAEVKKPGSSVKVSCKASGNSLNNYAITWVRQAPGQGLEWMGGINPLFGTANYAQKFQDRVTMTADESTNIAYLDLSSLTTADTAVYFCAVGAFTNYPFWGQGTTVTVSS VL: SGLTQDPAVSEALGQTVRITCQGDSLRSYYASWYQQKPGQAPLLVIYAGNNRPSGIPDRFSGSSSGNTASLTITGARAEDEADYYCNSRDSSGNYLFGAGTKLTVL | no binding (tested: ~1 µM) | 4.7 nM | – |
| 6F8 IgG (antibody, V domains shown, IgG from scFv V genes) VH: QVQLKQSGAELVKSGASVKLSCTASGFNIKDFYMHWVKQRTEQGLEWIGRIDPEDGETKYAPKFQGKATITADTSSNTAYLQLSSLTSEDTAVYYCVRDRDYDWGQGTTLTVSS VL: not shown | – | – | 0.22 nM |
| 6F10 IgG (antibody, V domains shown, IgG from scFv V genes) VH: EVQLQESGGDLVKPGGSLKLSCAASGFTFSYYGMSWVRQTPDKRLEWVATISSGGTYTYYPDSVKGRFTISRDNAKNTLYLQMSSLSSEDTAMYYCARRRSYDSVYWYFDVWGAGTSVTVSS VL: DIVLTQSPAITAASLGQKVTITCSASSSGSYIHWYQQKSGTSPKLLIYRTSNLASGVPSRFSGSGSGTFYSLTISSVEAEDAADYFCHQWSSYPTFGGGTKLEIK | – | – | 0.07 nM |
| 6F9 IgG (antibody, V domains shown, IgG from scFv V genes) VH: QVQLQQPGAELVKPGASVKLSCKASGNSFASSWMHWVKQRPGQGLEWIGMIHPYSGSTNFNEKFKSKATLSVDKSSSTAYMQLSSLTSEDSAVYYCAMNWDWYFDVWGTGTTVTVSA VL: DVVMTQSPKFMSTSVGDRVSITCKASQDVGTAVAWYQQKPGQSPKLLIYWASTRHTGVPDRFTGSGSGTDFTLTISDVLSEDLADYFCQQYGGYPTFGGGTKLEIK | – | – | 0.26 nM |
| 87C78 scFv (scFv, V domains shown, human) VH: QVQLQESGGGVVQPGKSLRLSCVTSTFTLGTYAMHWVRQAPGKGLQWVAVISYDGRYADYADSVKGRFNISRDNSKNTLYLQMHSLTTEDTALYYCAKAIKAFRPVPPSFHMDVWGIGTTVTVSS VL: DIVMTQSPSSLSASVGDRVTITCRASQGISSYLAWYQQKPGKAPQLLIYKASILKSGVPSRFSGSGSGTEFTLTISSLQPEDFATYFCQQTFDTPLTFGQGTKVEIK | no binding (tested: ~1 µM) | 1 nM | – |
